Measured values from publication PMC4975651.

Assays:
Experiment in all cases: ITC
H3K4me0K14ac peptide = molecular target: H3K4me0K14ac peptide
[1] = molecular target: H3K4me0 peptide (ITC, Figures 5D and 5E) (UniProt P68431)
H3K4me0 (1-25aa) peptide = H3K4me0 (1-25aa) peptide (UniProt P68431)

Substance | Kd (H3K4me0K14ac peptide) | Kd [1] | fold increase of binding activity against ZMYND8-PBP (H3K4me0 (1-25aa) peptide)
ZMYND8-PBP (93-426aa) (domain or fragment) | 1 µM | 7.2 µM | –
ZMYND8-PBP F109D (domain or fragment) | – | – | 11 fold
ZMYND8-PB (ITC) (domain or fragment) | – | 15 µM | –
